Test results published in US9045527 (WILLIAM MARSH RICE UNIVERSITY, dated 2015).
One block for each binder: values may come before it. Where no end group is shown, it is not given here.

Columns and labels:
[1] = target: T1, CAL PDZ domain (CALP), wild type (UniProt Q9HD26 278-362); assay: fluorescence anisotropy displacement of a fluorescent reporter peptide; apparent Ki, not significantly different from Rh2(OAc)4
Protocol: (§1) Protein binding studies: Fluorescence anisotropy inhibition binding assays were performed using standard procedures. […] Following equilibration, fluorescence anisotropy values were determined using a Tecan Infinite M1000 plate reader (n=3). Inhibitor equilibrium dissociation (Ki) constants were estimated as described. DMSO and rhodium(II) acetate were used as negative controls for unlabeled and labeled peptides, respectively.

[2] = target: T1, CAL PDZ domain (CALP), wild type; assay: fluorescence anisotropy displacement of a fluorescent reporter peptide
Protocol: as §1

K3a,eRh2 metallopeptide = target: T2, K3a,eRh2 metallopeptide (chain 1 pos 9 (heptad a) and pos 13 (heptad e): Glu side-chain carboxylates bridged by one dirhodium(II) centre, written E. N-terminal acetyl per paragraph 78. C-terminal form not stated.); assay: thermal denaturation of an equimolar mixture, CD
T2 peptide: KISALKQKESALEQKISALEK

CALP-H301A mutant = CALP-H301A mutant (UniProt Q9HD26 278-362); assay: fluorescence anisotropy displacement of a fluorescent reporter peptide
Protocol: as §1

Binder: Ac-E(dirhodium)WPTSII-OH (also: dirhodium metal complex at Glu side chain) [E^RhWPTSII metallopeptide]
Ki [2]: 1700 nM

Binder: Ac-E(dirhodium)VQSTRL-OH (also: dirhodium metal complex at Glu side-chain carboxylate) [E^RhVQSTRL metallopeptide]
Ki [2]: 560 nM | Ki (CALP-H301A mutant): 9.2 µM

Other lines, results leading:

Ki [1]: 6.3 µM
Binder: Ac-VQD(dirhodium)TRL-OH (also: dirhodium metal complex at Asp side-chain carboxylate) [VQD^RhTRL metallopeptide]

binding result (K3a,eRh2 metallopeptide): binds
Binder: Ac-EISALEKCISALEQEISALEK [E3gC peptide]
